Reference: article PMC4592603, “Cloning, Expression, Sequence Analysis and Homology Modeling of the Prolyl Endoprotease from Eurygaster integriceps Puton” (Insects, 2014)

Substrate: O=C(NCC(=O)N1CCC[C@H]1C(=O)Nc1ccc([N+](=O)[O-])cc1)OCc1ccccc1
Assay: purified protein
Format: biochemical, Eurygaster integriceps
Conditions: 25 mM ethanolamine, pH 8.5, 0.1 M NaCl, 1 mM DTT, 37 °C, abstract prints 210 ± 53 µM

B1: spPEP (sunn pest prolyl endoprotease) (Eurygaster integriceps) (protein)
chain: MKKFQYPEARRDETIKETFFGIEVADPYRWLEDPDSEETKNFVDAQNSISEPYLKGCPARDKIKARLTQMLDYPKYSPPEKEGNHYFYFKNTGLQNHSVLYMQDSLDGPSKVFLDPNTFSSDGTVALTSTSFSEDGSIMGYTVSKSGSDWCTIHFRRVDTGEDYPEELKFVKFGHAAWTHDNLGVFYTRFPEVEGKSDGSETSQNRNQKIYYHKVGTPQSEDILVVELDDPEYIYTVCVSDCGRGVVILPSKFCHNNLVYFSDLSTLKDGIKGKLDVTCIVDKFEADYEFVANTGSKFVFRTNKNAHNYKLVVIDFENHSEENWVTLVPEHPTDVLEQAVSVAQDKLVLCYIRDVKNTLDIHSLVDGSLIRKIPVPIGTVSSISGSKKHSEVFYTFISFTSPGTIYRCDLSQSPIPDPEVFRQITIPGYDPSMFEEKQVFYLSKDGTRIPMFLVHKKVLEQNGKNPCLVYGYGGFNISLLPMFSTIRLVFVQYFNAVFASANIRGGGEYGEKWHDGGRLLNKQNSFDDFIAAGEYLIAEKYTNKSCLAIQGASNGGLLIGASVKPPYWLLEDPEYIYTVCVSDCGRWAVILPSKFCYNNLVYFSVLFQEEHFKNVLKYSPLHNIRVPEDQYPALLLLTASHDDRVVPLHSLKYIAQLQHVMRDNPKQENPLLIQVETKAGHGAGKPTNKRIEEQVDILCFLMNSMNLKFIE
notes: full-length ORF (no signal peptide identified), N-terminal FLAG and 10xHis tag, pNYCOMPS-LIC vector, E. coli BL21(DE3), soluble fraction, Ni-NTA, about 80 kDa, tags not reported cut
Km: 211 ± 53 µM
